Measurements as given in PMC6191436.

Molecular target: FLAG-cyclin B1 (UniProt P14635)
Experiment: co-IP; MCF7 cells transfected with Myc-BRCA1-Δ11 and FLAG-cyclin B1, synchronised (aphidicolin 0.3 μM 24 h, release 8 h, nocodazole 100 ng/mL 24 h, release 2 h), without or with irradiation (10 Gy); anti-FLAG antibody-conjugated agarose; Western blot with anti-Myc

Chain of Myc-BRCA1-Δ11 (P38398 whole entry, stated change not applied): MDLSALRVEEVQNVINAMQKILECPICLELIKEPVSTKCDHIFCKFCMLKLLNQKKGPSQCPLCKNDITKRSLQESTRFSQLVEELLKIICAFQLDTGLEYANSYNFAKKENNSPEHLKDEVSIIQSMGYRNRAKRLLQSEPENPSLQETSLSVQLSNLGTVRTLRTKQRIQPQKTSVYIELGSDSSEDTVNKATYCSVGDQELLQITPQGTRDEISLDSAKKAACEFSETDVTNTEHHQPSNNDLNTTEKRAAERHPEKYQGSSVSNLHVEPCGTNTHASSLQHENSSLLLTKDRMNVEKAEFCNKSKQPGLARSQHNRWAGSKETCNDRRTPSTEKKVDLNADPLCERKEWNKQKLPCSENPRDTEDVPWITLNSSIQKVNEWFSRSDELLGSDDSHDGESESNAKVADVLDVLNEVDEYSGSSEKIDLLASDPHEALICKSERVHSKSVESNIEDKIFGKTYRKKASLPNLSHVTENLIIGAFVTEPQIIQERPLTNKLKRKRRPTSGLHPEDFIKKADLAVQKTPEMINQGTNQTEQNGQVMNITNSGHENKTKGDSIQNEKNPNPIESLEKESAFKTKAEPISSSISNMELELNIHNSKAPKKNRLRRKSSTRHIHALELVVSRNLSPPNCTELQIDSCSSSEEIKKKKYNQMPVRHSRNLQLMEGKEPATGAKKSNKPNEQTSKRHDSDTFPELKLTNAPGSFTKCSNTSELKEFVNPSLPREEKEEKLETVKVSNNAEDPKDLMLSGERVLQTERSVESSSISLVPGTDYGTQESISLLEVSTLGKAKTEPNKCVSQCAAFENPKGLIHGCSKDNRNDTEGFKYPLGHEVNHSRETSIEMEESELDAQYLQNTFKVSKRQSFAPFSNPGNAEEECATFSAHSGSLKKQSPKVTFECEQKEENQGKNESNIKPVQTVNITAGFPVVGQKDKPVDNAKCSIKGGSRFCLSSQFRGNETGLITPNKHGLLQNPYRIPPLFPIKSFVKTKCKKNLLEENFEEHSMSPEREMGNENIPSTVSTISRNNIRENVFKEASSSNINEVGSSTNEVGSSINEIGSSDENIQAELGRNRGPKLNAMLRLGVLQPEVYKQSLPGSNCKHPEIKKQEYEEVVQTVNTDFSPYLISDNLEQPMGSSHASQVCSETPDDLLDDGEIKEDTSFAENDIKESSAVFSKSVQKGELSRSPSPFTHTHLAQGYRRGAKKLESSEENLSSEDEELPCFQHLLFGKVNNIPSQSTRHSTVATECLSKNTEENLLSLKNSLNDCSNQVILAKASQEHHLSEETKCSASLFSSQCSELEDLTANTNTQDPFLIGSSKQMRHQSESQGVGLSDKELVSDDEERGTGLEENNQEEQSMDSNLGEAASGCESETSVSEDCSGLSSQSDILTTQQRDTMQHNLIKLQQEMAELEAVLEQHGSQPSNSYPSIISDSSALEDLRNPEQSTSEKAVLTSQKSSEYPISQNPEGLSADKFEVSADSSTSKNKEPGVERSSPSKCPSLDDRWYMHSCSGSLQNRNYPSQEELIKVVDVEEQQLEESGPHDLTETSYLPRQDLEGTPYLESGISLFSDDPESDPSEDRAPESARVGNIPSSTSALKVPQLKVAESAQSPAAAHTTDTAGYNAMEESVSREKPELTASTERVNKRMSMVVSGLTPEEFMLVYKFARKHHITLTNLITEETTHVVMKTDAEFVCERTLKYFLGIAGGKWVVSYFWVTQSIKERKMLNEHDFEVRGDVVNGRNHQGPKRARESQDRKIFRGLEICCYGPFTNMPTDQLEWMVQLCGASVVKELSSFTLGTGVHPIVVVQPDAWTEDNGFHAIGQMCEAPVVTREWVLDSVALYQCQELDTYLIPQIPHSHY
Chain of FLAG-cyclin B1 (P14635 whole entry): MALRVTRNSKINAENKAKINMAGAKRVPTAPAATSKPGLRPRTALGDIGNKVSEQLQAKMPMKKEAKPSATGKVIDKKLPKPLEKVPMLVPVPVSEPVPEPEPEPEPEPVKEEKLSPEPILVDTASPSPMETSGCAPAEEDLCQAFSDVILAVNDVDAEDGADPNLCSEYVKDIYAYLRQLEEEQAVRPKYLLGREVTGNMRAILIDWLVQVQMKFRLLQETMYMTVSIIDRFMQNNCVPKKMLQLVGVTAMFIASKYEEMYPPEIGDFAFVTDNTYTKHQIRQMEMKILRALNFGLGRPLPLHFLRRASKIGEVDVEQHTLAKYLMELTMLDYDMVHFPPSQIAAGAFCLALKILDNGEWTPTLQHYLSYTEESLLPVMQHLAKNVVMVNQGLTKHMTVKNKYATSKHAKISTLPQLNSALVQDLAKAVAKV

Substance: Myc-BRCA1-Δ11 (from UniProt P38398-5 1-721) (natural protein)
- interaction upon irradiation relative to no irradiation (nocodazole-treated cells): 214%
